Measurements: patent publication US20220177604A1

What was measured:
[1] = target: recombinant Motavizumab human IgE (rMota-hIgE) (human) (UniProt P01854); test: hIgE binding ELISA
[2] = target: human IgE pre-bound on human basophils (human) (UniProt P01854); test: cell-based or functional assay
[3] = target: human immunoglobulin E (hIgE) (human) (UniProt P01854); test: competition ELISA, hIgE to coated hFcεRIα, pH 6
[4] = target: human immunoglobulin E (hIgE) (human) (UniProt P01854); test: SPR competition, hIgE over hFcεRIα chip, pH 7.4
[5] = target: human immunoglobulin E (hIgE) (human) (UniProt P01854); test: competition ELISA, hIgE to coated hFcεRIα, pH 7.4
[6] = target: human immunoglobulin E (hIgE) (human) (UniProt P01854); test: SPR competition, hIgE over hFcεRIα chip, pH 6 (text: pH 5.5)
[7] = target: human immunoglobulin E (hIgE) (human) (UniProt P01854); test: flow cytometry: inhibition of human IgE binding to hFcεRIα+ bone-marrow-derived mast cells, residual IgE staining (MFI); table head on the sheet reads EC50, the text calls the values IC50; no unit in the table, x axis in µg/ml
[8] = target: human immunoglobulin E (hIgE) (human) (UniProt P01854); test: flow cytometry: inhibition of human IgE binding to hFcεRIα+ bone-marrow-derived mast cells, residual IgE staining (MFI); unit inferred, x axis in µg/ml

Sequence of human immunoglobulin E (hIgE) (human) (P01854 whole entry): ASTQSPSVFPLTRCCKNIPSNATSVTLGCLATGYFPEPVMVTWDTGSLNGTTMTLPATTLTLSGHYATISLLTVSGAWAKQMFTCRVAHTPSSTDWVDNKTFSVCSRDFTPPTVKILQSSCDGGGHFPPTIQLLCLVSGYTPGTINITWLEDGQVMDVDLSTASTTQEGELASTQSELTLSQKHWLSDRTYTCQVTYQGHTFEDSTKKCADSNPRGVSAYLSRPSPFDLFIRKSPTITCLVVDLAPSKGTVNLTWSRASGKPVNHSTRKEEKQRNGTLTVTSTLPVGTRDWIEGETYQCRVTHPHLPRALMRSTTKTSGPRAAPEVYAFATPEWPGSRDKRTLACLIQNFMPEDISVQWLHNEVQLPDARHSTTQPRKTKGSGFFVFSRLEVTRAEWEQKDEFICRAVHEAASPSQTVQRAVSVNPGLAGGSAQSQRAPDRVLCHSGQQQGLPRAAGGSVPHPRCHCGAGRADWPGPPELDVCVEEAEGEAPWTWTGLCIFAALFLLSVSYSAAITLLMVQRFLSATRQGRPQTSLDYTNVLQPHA
Sequence of human IgE pre-bound on human basophils (human) (P01854 whole entry, chain 1 of 2): as the sequence (P01854 whole entry) above
Sequence of human IgE pre-bound on human basophils (human) (P12319 26-257, chain 2 of 2, further chain): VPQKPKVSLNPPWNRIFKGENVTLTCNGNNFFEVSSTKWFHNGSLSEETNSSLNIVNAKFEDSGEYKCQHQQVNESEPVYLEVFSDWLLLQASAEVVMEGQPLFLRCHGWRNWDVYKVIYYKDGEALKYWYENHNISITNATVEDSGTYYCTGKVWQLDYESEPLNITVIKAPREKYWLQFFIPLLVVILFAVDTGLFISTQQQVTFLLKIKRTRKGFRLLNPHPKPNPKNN
Sequence of recombinant Motavizumab human IgE (rMota-hIgE) (human) (P01854 other isoform, or with tags, fused parts or gaps limits assumed, form in doubt): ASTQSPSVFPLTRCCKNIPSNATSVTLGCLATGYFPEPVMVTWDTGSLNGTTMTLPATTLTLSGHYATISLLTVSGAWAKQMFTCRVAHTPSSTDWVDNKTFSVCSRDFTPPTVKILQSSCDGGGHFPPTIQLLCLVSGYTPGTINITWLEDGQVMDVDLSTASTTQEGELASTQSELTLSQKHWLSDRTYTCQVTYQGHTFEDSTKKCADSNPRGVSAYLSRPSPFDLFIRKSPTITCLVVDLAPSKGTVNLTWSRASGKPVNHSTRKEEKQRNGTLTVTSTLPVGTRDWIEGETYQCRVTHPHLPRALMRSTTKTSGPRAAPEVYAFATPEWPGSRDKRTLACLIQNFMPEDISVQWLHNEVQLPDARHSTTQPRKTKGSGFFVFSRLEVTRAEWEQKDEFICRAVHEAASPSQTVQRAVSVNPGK

B1: CL-2C mAb 28 (antibody, V domains shown)
VH: QVQLVQSGAEVMKPGSSVKVSCKASGYTFSWYHLEWVRQAPGHGLEWMGEIDPGTFTTNYNEKFKARVTFTADTSTSTAYMELSSLRSEDTAVYYCARFSHFSGSHYDYFDYWGQGTLVTVSS
VL: EIVMTQSPATLSVSPGERATLSCRASQSIGTNIHWYQQKPGQAPRLLIYHASESISGIPARFSGSGSGTEFTLTISSLQSEDFAVYYCQQSWSWPTTFGGGTKVEIK
Ratio OD450 pH 7.4/pH 6 [1]: 5.54

B2: CL-2C mAb 31 (antibody, V domains shown)
VH: QVQLVQSGAEVMKPGSSVKVSCKASGYTFSWYWLEWVRQAPGHGLEWMGEIDPGTFTTHYNEKFKARVTFTADTSTSTAYMELSSLRSEDTAVYYCARFSHFSGSHYDYFDYWGQGTLVTVSS
VL: EIVMTQSPATLSVSPGERATLSCRASQSIGTNIHWYQQKPGQAPRLLIYYASESISGIPARFSGSGSGTEFTLTISSLQSEDFAVYYCQQSWSHPTTFGGGTKVEIK
Ratio OD450 pH 7.4/pH 6 [1]: 10.9

B3: CL-2C mAb 32 (antibody, V domains shown)
VH: QVQLVQSGAEVMKPGSSVKVSCKASGYTFSWYHLEWVRQAPGHGLEWMGEIDPGTFTTNYNEKFKARVTFTADTSTSTAYMELSSLRSEDTAVYYCARFSHFSGSNHDYFDYWGQGTLVTVSS
VL: EIVMTQSPATLSVSPGERATLSCRASQSIGTNIHWYQQKPGQAPRLLIYYASESISGIPARFSGSGSGTEFTLTISSLQSEDFAVYYCQQSWSHPTTFGGGTKVEIK
Ratio OD450 pH 7.4/pH 6 [1]: 4.13

B4: CL-2C mAb 34 (antibody, V domains shown)
VH: QVQLVQSGAEVMKPGSSVKVSCKASGYTFSWYHLEWVRQAPGHGLEWMGEIDPGTFTTNYNEKFKARVTFTADTSTSTAYMELSSLRSEDTAVYYCARFSHFSGHNYDYFDYWGQGTLVTVSS
VL: EIVMTQSPATLSVSPGERATLSCRASQSIGTNIHWYQQKPGQAPRLLIYYASESISGIPARFSGSGSGTEFTLTISSLQSEDFAVYYCQQSWSHPTTFGGGTKVEIK
Ratio OD450 pH 7.4/pH 6 [1]: 5.5

B5: CL-2C mAb 36 (antibody, V domains shown)
VH: QVQLVQSGAEVMKPGSSVKVSCKASGYTFSWYWLEWVRQAPGHGLEWMGEIDPGTFTTHYNEKFKARVTFTADTSTSTAYMELSSLRSEDTAVYYCARFSHFSGSHYDYFDYWGQGTLVTVSS
VL: EIVMTQSPATLSVSPGERATLSCRASQSIGTNIHWYQQKPGQAPRLLIYYASESISGIPARFSGSGSGTEFTLTISSLQSEDFAVYYCQQSWSWPTTFGGGTKVEIK
Ratio OD450 pH 7.4/pH 6 [1]: 10.7

B6: CL-2C mAb 33 (antibody, V domains shown)
VH: QVQLVQSGAEVMKPGSSVKVSCKASGYTFSWYHLEWVRQAPGHGLEWMGEIDPGTFTTNYNEKFKARVTFTADTSTSTAYMELSSLRSEDTAVYYCARFSHFSGSHYDYFDYWGQGTLVTVSS
VL: EIVMTQSPATLSVSPGERATLSCRASQSIGTNIHWYQQKPGQAPRLLIYYASESISGIPARFSGSGSGTEFTLTISSLQSEDFAVYYCQQSWSHPTTFGGGTKVEIK
Ratio OD450 pH 7.4/pH 6 [1]: 2.61

B7: CL-2C mAb 35 (antibody, V domains shown)
VH: QVQLVQSGAEVMKPGSSVKVSCKASGYTFSWYWLEWVRQAPGHGLEWMGEIDPGTFTTNYNEKFKARVTFTADTSTSTAYMELSSLRSEDTAVYYCARFSHFSGSNYDYFDYWGQGTLVTVSS
VL: EIVMTQSPATLSVSPGERATLSCRASQSIGTNIHWYQQKPGQAPRLLIYYASESISGIPARFSGSGSGTEFTLTISSLQSEDFAVYYCQQSWSHPTTFGGGTKVEIK
Ratio OD450 pH 7.4/pH 6 [1]: 0.69

B8: CL-2C mAb 39 (antibody, V domains shown)
VH: QVQLVQSGAEVMKPGSSVKVSCKASGYTFSWYHLEWVRQAPGHGLEWMGEIDPGTFTTNYNEKFKARVTFTADTSTSTAYMELSSLRSEDTAVYYCARFSHFSGHNYDYFDYWGQGTLVTVSS
VL: EIVMTQSPATLSVSPGERATLSCRASQSIGTNIHWYQQKPGQAPRLLIYYASESISGIPARFSGSGSGTEFTLTISSLQSEDFAVYYCQQSWSWPTTFGGGTKVEIK
Ratio OD450 pH 7.4/pH 6 [1]: 7.59

B9: CL-2C mAb 38 (antibody, V domains shown)
VH: QVQLVQSGAEVMKPGSSVKVSCKASGYTFSWYHLEWVRQAPGHGLEWMGEIDPGTFTTNYNEKFKARVTFTADTSTSTAYMELSSLRSEDTAVYYCARFSHFSGSHYDYFDYWGQGTLVTVSS
VL: EIVMTQSPATLSVSPGERATLSCRASQSIGTNIHWYQQKPGQAPRLLIYYASESISGIPARFSGSGSGTEFTLTISSLQSEDFAVYYCQQSWSWPTTFGGGTKVEIK
Ratio OD450 pH 7.4/pH 6 [1]: 4.48

B10: CL-2C mAb 29 (antibody, V domains shown)
VH: QVQLVQSGAEVMKPGSSVKVSCKASGYTFSWYHLEWVRQAPGHGLEWMGEIDPGTFTTNYNEKFKARVTFTADTSTSTAYMELSSLRSEDTAVYYCARFSHFSGHNYDYFDYWGQGTLVTVSS
VL: EIVMTQSPATLSVSPGERATLSCRASQSIGTNIHWYQQKPGQAPRLLIYHASESISGIPARFSGSGSGTEFTLTISSLQSEDFAVYYCQQSWSWPTTFGGGTKVEIK
Ratio OD450 pH 7.4/pH 6 [1]: 15.3

B11: CL-2C mAb 40 (antibody, V domains shown)
VH: QVQLVQSGAEVMKPGSSVKVSCKASGYTFSWYWLEWVRQAPGHGLEWMGEIDPGTFTTNYNEKFKARVTFTADTSTSTAYMELSSLRSEDTAVYYCARFSHFSGSNYDYFDYWGQGTLVTVSS
VL: EIVMTQSPATLSVSPGERATLSCRASQSIGTNIHWYQQKPGQAPRLLIYYASESISGIPARFSGSGSGTEFTLTISSLQSEDFAVYYCQQSWSWPTTFGGGTKVEIK
Ratio OD450 pH 7.4/pH 6 [1]: 1

B12: CL-2C mAb 30 (antibody, V domains shown)
VH: QVQLVQSGAEVMKPGSSVKVSCKASGYTFSWYWLEWVRQAPGHGLEWMGEIDPGTFTTNYNEKFKARVTFTADTSTSTAYMELSSLRSEDTAVYYCARFSHFSGSNYDYFDYWGQGTLVTVSS
VL: EIVMTQSPATLSVSPGERATLSCRASQSIGTNIHWYQQKPGQAPRLLIYHASESISGIPARFSGSGSGTEFTLTISSLQSEDFAVYYCQQSWSWPTTFGGGTKVEIK
Ratio OD450 pH 7.4/pH 6 [1]: 14

B13: 13E4-hIgG1-ABDEG (antibody, V domains shown)
VH: ELQLVESGGGLVQPGGSLRLSCAASGFTFSSYVMSWVRQAPGKGLEWVSSIYHDGSHTYYADFVKGRFTISRDNAKNTLYLQMNSLKSEDTAVYYCASGTSYSGSYYYTDPFFGSWGQGTQVTVSS
VL: HSAVTQPSALSVTLGQTAKITCQGGSLGSNYAYWYQQKPGQAPVLVIYDDDSRPSGIPERFSGSSSGGTATLTISGAQAEDEGDYYCQSADSNGNAVFGGGTHLTVL
% CD63+ basophils at 20 µg/mL [2]: 61.3% | % CD63+ basophils at 100 µg/mL [2]: 68.6% | % of activated basophils (CCR3+CD63+) [2]: 17% | IC50 [3]: 0.0106 µg/mL | IC50 [4]: 3 µg/mL | IC50 [5]: 0.0065 µg/mL | IC50 [6]: 3.2 µg/mL | IC50 [7]: 1.36 µg/mL

B14: 18E2VLHis-ABDEG (antibody, V domains shown)
VH: QLQLVESGGGLVQPGGSLRLSCAASGFTFSSYVMSWVRQAPGKGLEWVSSIYHDGSHTYYADFVKGRFTISRDNAKNTLYLQMNSLKSEDTAVYYCASGTSYSGSYYYTDPFFGSWGQGTQVTVSS
VL: NFMLTQPSALSVTLGQTARITCQGDRLGSRYIHWYQQKPPQAPVLVIHDDDRRPSGIPERFSGSSSGGTATLTISGAQAEDDGDYYCQSADSSGNPVFGGGTHLTVL
% CD63+ basophils at 20 µg/mL [2]: 3.7% | % CD63+ basophils at 100 µg/mL [2]: 3.1% | SI (Stimulation Index) at 20 µg/mL [2]: 1.48 | SI (Stimulation Index) at 100 µg/mL [2]: 1.24

B15: 18E2His2-hIgG1-ABDEG (antibody, V domains shown)
VH: QLQLVESGGGLVQPGGSLRLSCAASGFTFSSYVMHWVRQAPGKGLEWVSSIYHDGSHTYYADFVKGRFTISRDNAKNTLYLQMNSLKSEDTAVYYCASGTSYSGSYYYTDPFFGSWGQGTQVTVSS
VL: NFMLTQPSALSVTLGQTARITCQGDRLGSRYIHWYQQKPPQAPVLVIHDDDRRPSGIPERFSGSSSGGTATLTISGAQAEDDGDYYCQSADSSGNPVFGGGTHLTVL
% CD63+ basophils at 20 µg/mL [2]: 4% | % CD63+ basophils at 100 µg/mL [2]: 4.3% | % of activated basophils (CCR3+CD63+) [2]: 4% | IC50 [3]: 26.6 µg/mL | IC50 [4]: 5.8 µg/mL | IC50 [5]: 1.49 µg/mL | IC50 [6]: 7320 µg/mL | IC50 [7]: 208 µg/mL

B16: 18E2VHHis-ABDEG (antibody, V domains shown)
VH: QLQLVESGGGLVQPGGSLRLSCAASGFTFSSYVMHWVRQAPGKGLEWVSSIYHDGSHTYYADFVKGRFTISRDNAKNTLYLQMNSLKSEDTAVYYCASGTSYSGSYYYTDPFFGSWGQGTQVTVSS
VL: NFMLTQPSALSVTLGQTARITCQGDRLGSRYIYWYQQKPPQAPVLVIHDDDRRPSGIPERFSGSSSGGTATLTISGAQAEDDGDYYCQSADSSGNPVFGGGTHLTVL
% CD63+ basophils at 20 µg/mL [2]: 3.5% | % CD63+ basophils at 100 µg/mL [2]: 4.8% | SI (Stimulation Index) at 20 µg/mL [2]: 1.4 | SI (Stimulation Index) at 100 µg/mL [2]: 1.92

B17: 18B9His-hIgG1-ABDEG (antibody, V domains shown)
VH: QVQLVESGGGLVQPGGSLRLSCAASGFTFSSYVMSWVRQAPGKGLEWVSSIYSDGSHTYYADSVKGRFTISRDNAKNTLYLQMNSLKSEDTAVYYCAKNLEHYSGSYYYTDPRYDYWGQGTQVTVSS
VL: SSALTQPSALSVTLGQTAKITCQGGSLGSSYVHWYQQKPGQAPVLVIHDGDSRPSGIPERFSGSSSGGTATLTISGAQAEDEDDYYCQSADSSGNAVFGGGTHLTVL
% of activated basophils (CCR3+CD63+) [2]: 29% | IC50 [3]: 2.55 µg/mL | IC50 [4]: 2.9 µg/mL | IC50 [5]: 0.13 µg/mL | IC50 [6]: 52.9 µg/mL | IC50 [8]: 4.16 µg/mL
